Columns and labels:
[1] = tested on: COc1cc(C=O)ccc1O; experiment: purified protein; settings: co-substrate NAD+ (0.5 mM in standard assay), 30 °C, pH 9.5
[2] = tested on: NC(=O)c1ccc[n+]([C@@H]2O[C@H](COP(=O)(O)OP(=O)(O)OC[C@H]3O[C@@H](n4cnc5c(N)ncnc54)[C@H](O)[C@@H]3O)[C@@H](O)[C@H]2O)c1; experiment: purified protein; settings: co-substrate vanillin, pH 9.5, varied: cofactor
[3] = target: vanillin dehydrogenase from Streptomyces sp. NL15-2K (recombinant) (Streptomyces sp. NL15-2K); experiment: SEC; gel filtration of purified recombinant VDH on Superdex 200 10/300 GL, calibrated with thyroglobulin, ferritin, aldolase, conalbumin and ovalbumin; native mass compared with the subunit mass by SDS-PAGE

| Substance | Km [1] | kcat [1] | kcat/Km [1] | Km [2] | kcat [2] | stoichiometry N [3] |
| --- | --- | --- | --- | --- | --- | --- |
| VDH (vanillin dehydrogenase) from Streptomyces sp. NL15-2K (Streptomyces sp. NL15-2K; S2A) | 8.47 ± 0.91 µM | 9.35 ± 0.77 s⁻¹ | 1.11e+06 ± 100000 M⁻¹ s⁻¹ | 647 ± 40.0 µM | 23.45 ± 0.59 s^− 1 | – |
| vanillin dehydrogenase from Streptomyces sp. NL15-2K (recombinant) (enzyme) | – | – | – | – | – | 4 |
